Values of other authors, collected in publication PMC5645029 (Journal of medicinal chemistry, 2017).

What was measured:
[1] = biological target: mMC1R (Mus musculus, UniProt Q01727); conditions: read-out: Ki app at mMC1R; displacement of radiolabeled NDP-MSH; cited from earlier work
[2] = biological target: mMC4R (Mus musculus, UniProt P56450); conditions: read-out: Ki app at mMC4R; displacement of radiolabeled NDP-MSH; cited from earlier work
[3] = biological target: mMC3R (Mus musculus, UniProt P33033); conditions: read-out: Ki app at mMC3R; displacement of radiolabeled NDP-MSH; cited from earlier work
mMC3R, sequence (P33033 whole entry): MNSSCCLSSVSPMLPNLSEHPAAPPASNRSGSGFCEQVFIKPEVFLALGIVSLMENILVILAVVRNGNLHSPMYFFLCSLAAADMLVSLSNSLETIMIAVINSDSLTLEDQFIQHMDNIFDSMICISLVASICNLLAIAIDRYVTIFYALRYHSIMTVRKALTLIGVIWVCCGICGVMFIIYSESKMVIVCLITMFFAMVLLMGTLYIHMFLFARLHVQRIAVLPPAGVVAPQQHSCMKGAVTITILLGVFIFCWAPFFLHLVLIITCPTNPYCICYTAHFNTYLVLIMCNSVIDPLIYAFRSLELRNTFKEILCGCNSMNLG

mMC1R, sequence (Q01727 whole entry): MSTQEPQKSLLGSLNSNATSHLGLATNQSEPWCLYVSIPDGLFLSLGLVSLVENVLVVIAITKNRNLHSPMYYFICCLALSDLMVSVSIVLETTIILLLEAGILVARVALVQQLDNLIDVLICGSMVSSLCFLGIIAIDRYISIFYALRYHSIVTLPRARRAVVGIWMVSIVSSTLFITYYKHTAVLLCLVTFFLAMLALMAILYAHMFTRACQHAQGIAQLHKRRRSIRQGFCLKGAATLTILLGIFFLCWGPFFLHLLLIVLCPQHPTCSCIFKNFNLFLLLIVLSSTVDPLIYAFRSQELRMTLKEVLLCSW
mMC4R, sequence (P56450 whole entry): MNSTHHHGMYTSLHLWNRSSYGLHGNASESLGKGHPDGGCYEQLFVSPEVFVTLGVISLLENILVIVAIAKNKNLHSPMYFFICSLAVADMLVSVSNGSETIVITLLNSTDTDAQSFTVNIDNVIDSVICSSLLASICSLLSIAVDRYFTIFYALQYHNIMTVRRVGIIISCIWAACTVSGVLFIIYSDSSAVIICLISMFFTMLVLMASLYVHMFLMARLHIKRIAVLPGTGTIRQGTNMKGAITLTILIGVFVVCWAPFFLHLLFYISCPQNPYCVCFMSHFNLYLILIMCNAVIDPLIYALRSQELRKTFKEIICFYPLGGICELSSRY

B1: mASP: recombinant mouse agouti-signaling protein (protein, UniProt Q03288 23-131, looked up)
Agouti-signaling protein: HLALEETLGDDRSLRSNSSMNSLDFSSVSIVALNKKSKKISRKEAEKRKRSSKKKASMKKVARPPPPSPCVATRDSCKPPAPACCDPCASCQCRFFGSACTCRVLNPNC
[1]
  Ki: 2.6 nM
[2]
  Ki: 54 nM
[3]
  Ki: 190 nM
